Values of other authors in paper PMC3577484.
Several values for one entry are separate records, joined by “and”; a condition that tells them apart may be missing. Equal values may be shown once.

Molecular target: insulin receptor (Xenopus laevis) (UniProt Q9PVZ4)
Experiment: Scatchard radioligand binding

Sequence of UniProt Q9PVZ4 (Q9PVZ4 759-1362): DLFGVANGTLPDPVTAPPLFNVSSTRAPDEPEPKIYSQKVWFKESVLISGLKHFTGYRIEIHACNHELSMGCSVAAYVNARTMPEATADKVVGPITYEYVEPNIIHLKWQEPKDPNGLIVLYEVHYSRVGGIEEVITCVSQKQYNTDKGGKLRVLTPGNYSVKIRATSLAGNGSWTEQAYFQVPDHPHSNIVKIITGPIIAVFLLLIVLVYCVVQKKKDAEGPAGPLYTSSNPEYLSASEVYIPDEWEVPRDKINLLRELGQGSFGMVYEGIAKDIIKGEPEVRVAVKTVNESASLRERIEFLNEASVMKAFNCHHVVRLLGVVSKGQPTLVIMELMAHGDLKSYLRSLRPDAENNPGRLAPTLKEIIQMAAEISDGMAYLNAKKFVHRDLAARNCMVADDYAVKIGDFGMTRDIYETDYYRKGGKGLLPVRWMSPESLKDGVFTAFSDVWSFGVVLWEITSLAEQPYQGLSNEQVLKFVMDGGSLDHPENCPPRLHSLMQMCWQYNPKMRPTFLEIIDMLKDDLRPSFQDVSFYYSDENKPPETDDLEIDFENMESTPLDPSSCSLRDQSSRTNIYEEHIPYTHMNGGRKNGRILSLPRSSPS
Sequence of insulin (F8WCM5 25-54): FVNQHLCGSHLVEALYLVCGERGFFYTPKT
Sequence of insulin (P01308 90-110, further chain): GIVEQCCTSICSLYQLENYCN

Substance: insulin (from UniProt P01308)
- Kd: 0.886 nM and 5.32 nM
